13 molecules from PMC9951844 (Nature Communications, 2023) can be followed below.

Residue numbers refer to the chain shown, from its start.

Sequences and labels used below:
B1: YB9-102 (antibody, V domains shown)
VH: EVQLLESGGGLVQPGGSLRLSCTASGFTFRYYAMTWVRQAPGKGLEWVSVIIGSGGDTYYADSVKGRFTISRDNSKNTLYLQMDSLRAEDTAVYYCATGELELGTCYFDYWGQGTLVTVSS
VL: DIQMTQSPSSVSASVGDRVTITCRASQGISSWLAWYQQKPGEAPKLLISAASSLQSGVPSRFSGSGSETDFTLTISSVQPEDFATYYCQQANSFPQAFGQGTKVEIK
B2: YB12-202 (antibody, V domains shown)
VH: EVQLVQSGAEVKKPGESLKISCKGSGYSFISYWIVWVRQMPGKGLEWMGIIYPGDSDTRYSPSFHGQVTISADKSFSTAYLQWSSLKASDTAMYYCATTPHLYGGADYWGQGTLVTVSS
VL: not shown
B3: YB13-216 (antibody, V domains shown)
VH: QVQLVESGGGVVQPGSSLRISCAASGFTFSSYGMHWVRQGPGKGLEWVAVIWDDGSGKHYAVSVKGRFTISRDNSKNTLYLQMNSLRVEDTAVYYCARDEGTTVTFFDYWGQGTLVTVSS
VL: DIQMTQSPSSLSASVGDRITITCRASQSIRTYLNWYQQKPGKAPKLLIYTSSSLQSGVPSRFSGSGSGTDFTLTISSLQPEDFATYFCQQSYSTPPWTFGQGTKVEIK
B4: YB13-209 (antibody, V domains shown)
VH: EVQLVESGGGLVKPGGSLKLSCAASGFSFVNAWMSWVRQAPGKGLEWVGRIKDKIDGGTTDYAAPVKGRFSISRDDSKNMLYLQMTSLKTEDTAVYYCTTGYNWHYGIEYWGQGTLVTVSS
VL: DIQMTQSPSSLSASVGDRVTVTCRASQSINSYLNWYQQKPGKAPKLLIYAASSLQSGVPSRFSGSGSGTDFTLTISSLQAEDFATYYCQQSYSTPDTFGQGTKLEIK
B5: YB13-217 (antibody, V domains shown)
V domain 1: QVQLVESGGGVVQPGKSLRLSCTASGFTFSSHSMHWVRQAPGKGLDWVAVISFDGTKNYFADSLKGRFSVSRDNSRNTLYLQMNSLRVEDTAVYYCAREEGGSRMYHYYYGMDVWGQGTTVTVSS
V domain 2: QSVLTQPPSASGTPGQRVTISCSGSSSNIGTNTVNWYQQLPGTAPKLLIYTNNQRPSGVPDRFSGSKSGTSASLAIGGLQSEDEADYYCAAWDDSVSSYVFGTGTQVTAL
B6: YB12-187 (antibody, V domains shown)
VH: EVQLVESGGGLVKPGGSLRLSCAASGFIFSTYSMNWVRQAPGKGLEWVSSISSFSTYIYYADSVKGRFTISRDNAKNSLYLQMNSLRAEDTAVYYCASGQMYSGSYPSGDYFDYWGQGTLVTVSS
VL: LSVLTQPPSVSGAPGQRVTISCTGSSSNIGADYDVHWYQQLPGTAPKLLIYGNTNRPSGVPDRFSGSKSGTSASLAITGLQAEDEAHYYCQSYDTSLSGVVFGGGTKLTVL
B7: YB9-112 (antibody, V domains shown)
VH: EVRLVESGGGLIQPGGSLRLSCAASGLIVSSNYMTWVRQAPGKGLEWVSVIYSGGSTFYADSVKGRFTISRDNSKNTLFLQMSSLRAEDTAIYYCARDLDYYGMDVWGQGTTVTVSS
VL: DIQLTQSPSFLSASVGDRVTITCRASQGVASYLAWYQQKPGKAPKLLIYAASTLQSGVPSRFSGSGSGTEFTLTISSLQPEDFATYYCQHLNSYPPITFGQGTRLEIK
B8: YB12-195 (antibody, V domains shown)
VH: B7 VH with R3Q, L27F, T35N, F79Y, S83N, I92V, D100Q, Y101R, Y102D
VL: SYVLTQPPSVSVAPGKTARITCGGNNIGSKNVHWYQQKPGQAPVLVIYYDSDRPSGIPERFSGSNSGNTATLTVSRVEAGDEADYYCQLWDSSSDHVVFGGGTKLTVL
B9: YB13-291 (antibody, V domains shown)
V domain 1: QITLKESGPTLVKPTQTLTLTCTFSGFSLNTAGVAVGWIRQPPGKAREWLALIYWDDDQRYSPSLESRLTITKDTSKNLVVLTMTNMDPVDTATYYCAHPRYFSDNSAYYWIWGQGTMVTVSS
V domain 2: SYDLTQPPSVSVSPGQTATISCSGDALPKQYVYWYQQKPGQAPVLVIYKDSERPSGIPERFSGSNSGTTVTLTISGVQAEDEAEYYCQSADSSGFYVFGSGTQVTVL
B10: YB13-275 (antibody, V domains shown)
V domain 1: QITLKESGPRLVKPTQTLTLTCTFSGFSLATAGMSVGWIRQPPGKALEWLALIYWDDDDRYSPSLKSRLTITKDTSRNQVVLTMTNMDPVDTATYYCIHPRFYSDPSGYYFIWGQGTMVTVSS
V domain 2: SYELTQPPSVSVSPGQTARITCSGDALAKQYAYWYQQKPGQAPVQVMYKDGERPSGIPERFSGSKSGTTVTLTISAVQAEDEADYFCQSADNSGFYVFGTGTQVTVL
B11: YB12-203 (antibody, V domains shown)
VH: QIQLQQSGPGLVEPSQTLSLTCAISGDSVSSISAAWNWIRQSPSRGLEWLGRTYYRSKWYNDYAVSVKSRITINPDTSKNQFSLHLNSVTPEDTAVYYCARDHLRWDIVATSLEAFDIWGQGTMVTVSS
VL: DIVMTQSPDSLAVSLGERATINCKSSQSVLFSSNNKNSLAWYQQKPGQPPKLLIYWASTRESGVPDRFSGSGSGTDFTLTISSLQAEDVAVYYCQQYHSSLLYTFGQGTKLEIK
B12: YB13-221 (antibody, V domains shown)
VH: EVQLVESGGGLVQPGGSLRLSCAASGFIVSSRYMSWVRQAPGKGLEWVSVIYSDGRSYYADSVKGRFIISRDNFKNALYLQMNSLRAEDTAVYYCARDSPYRTGWFLGQSDAFDIWGQGTMVTVSS
VL: DIQMTQSPSTLSASVGDRVTITCRASQSISSWLAWYQQKPGKAPNLLIYKASSLESGVPSRFSASGSGTEFTLTISSLQPDDFATYYCQQYNSYPPSFGQGTKVEIK
B13: YB12-266 (antibody, V domains shown)
VH: EVQLVESGGGLIQPGGSLRLSCAASGLTVSSNYMSWVRQAPGKGLEWVSLIYSGGTTSYADSVKGRFTISRDNSKNTLYLQMNSLRVEDTAVYYCARDLVVYGMDVWGQGTTVTVSS
VL: AIQLTQSPSSLSASVGDRVTITCRASQGISSYLAWYQQKPGKAPKLLIYAASTLQSGVPSRFSGSGSGTDFTLTISSLQPEDFATYYCQLLNSYPLTFGGGTKVEIK

In the first assay the target is SARS-CoV-2 Omicron BA.1 (B.1.1.529) RBD (SARS-CoV-2 Omicron BA.1 (B.1.1.529), strain).
In the case of B1, the binding result was “binds”.

Consider B2, for which the binding result was “binds”.

As for B3, the binding result was “binds”.

Turning to B4, the binding result is given as “binds”.

B5: the binding result is recorded as “binds”.

On to B6, for which the binding result is “binds”.

The next assay has as its target SARS-CoV-2 wildtype S1 (SARS-CoV-2 wildtype (Wuhan), UniProt P0DTC2).
Consider B7, for which the binding result is on record as “binds”.

Regarding B8, the binding result is “binds”.

Regarding B1, the binding result is “binds”.

On to B9, for which the binding result is on record as “binds”.

As to B10, the binding result is reported as “binds”.

In the case of B11, the binding result is on record as “binds”.

Consider B2, for which the binding result is recorded as “binds”.

Take B3: the binding result is recorded as “binds”.

As for B4, the binding result is “binds”.

Take B12: the binding result is “binds”.

As for B5, the binding result is reported as “binds”.

B6: the binding result is given as “binds”.

Turning to B13, the binding result was “binds”.

Another assay deals with SARS-CoV-2 Beta (B.1.351) S1 (SARS-CoV-2 Beta (B.1.351), strain).
As to B7, the binding result is “binds”.

As to B1, the binding result is listed as “binds”.

In the case of B9, the binding result is reported as “binds”.

Consider B10, for which the binding result was “binds”.

Take B11: the binding result is listed as “binds”.

With B2, the binding result is recorded as “binds”.

With B3, the binding result was “binds”.

As for B4, the binding result was “binds”.

Regarding B12, the binding result is given as “binds”.

Turning to B5, the binding result was “binds”.

For B6, the binding result is reported as “binds”.

With B13, the binding result is “binds”.

In the next assay the target is SARS-CoV-2 Delta (B.1.617.2) S1 (SARS-CoV-2 Delta (B.1.617.2), strain).
For B7, the binding result is recorded as “binds”.

For B8, the binding result is on record as “binds”.

Consider B1, for which the binding result is “binds”.

For the molecule B9, the binding result is recorded as “binds”.

B10: the binding result was “binds”.

For the molecule B11, the binding result is given as “binds”.

B2: the binding result is on record as “binds”.

As for B3, the binding result was “binds”.

For the molecule B4, the binding result was “binds”.

Regarding B12, the binding result is “binds”.

Consider B5, for which the binding result is given as “binds”.

Take B6: the binding result was “binds”.

As to B13, the binding result is given as “binds”.

The target of the next assay is SARS-CoV-2 Gamma (P.1) S1 (SARS-CoV-2 Gamma (P.1), strain).
Consider B7, for which the binding result was “binds”.

As for B8, the binding result is “binds”.

Take B1: the binding result is “binds”.

Consider B9, for which the binding result is listed as “binds”.

Take B10: the binding result is reported as “binds”.

Take B2: the binding result is given as “binds”.

On to B3, for which the binding result was “binds”.

B4: the binding result was “binds”.

With B12, the binding result is reported as “binds”.

As to B5, the binding result is listed as “binds”.

As for B6, the binding result is reported as “binds”.

On to B13, for which the binding result is recorded as “binds”.

The next assay deals with SARS-CoV-2 Kappa (B.1.617.1) spike ECD (SARS-CoV-2 Kappa (B.1.617.1), strain).
Take B7: the binding result is on record as “binds”.

With B8, the binding result was “binds”.

Take B1: the binding result is listed as “binds”.

For B9, the binding result is reported as “binds”.

Take B10: the binding result is reported as “binds”.

On to B11, for which the binding result is “binds”.

In the case of B2, the binding result is “binds”.

As for B3, the binding result is reported as “binds”.

As for B4, the binding result is “binds”.

Take B12: the binding result is on record as “binds”.

As to B5, the binding result was “binds”.

With B6, the binding result is listed as “binds”.

As to B13, the binding result is “binds”.

The target in another assay is SARS-CoV-2 Lambda (C.37) RBD (SARS-CoV-2 Lambda (C.37), strain).
For B7, the binding result is on record as “binds”.

On to B8, for which the binding result is “binds”.

Turning to B1, the binding result is “binds”.

With B9, the binding result was “binds”.

As for B10, the binding result is listed as “binds”.

For B11, the binding result is given as “binds”.

On to B2, for which the binding result is “binds”.

As to B3, the binding result is “binds”.

In the case of B4, the binding result is reported as “binds”.

As for B12, the binding result was “binds”.

On to B5, for which the binding result is “binds”.

Take B6: the binding result was “binds”.

As for B13, the binding result is given as “binds”.
